This note sets out measurements from patent publication US20230192896A1 (BIOVERATIV THERAPEUTICS, published 2023).

The target in test [1] is T1, free FIXa (activated Factor IX) (human, UniProt P00740 47-191; P00740 227-461).
T1 construct: BLI antigen bought from Haematologic Technologies (HCIXA-0050); also called factor IXa
The test can be described thus: BLI; class meaning: paragraph 914. (In general: In BLI a coated tip is dipped into the sample, and binding shifts an interference pattern.)

The target of the next test is T2, FIXa-SM (FIXa+EGR-CMK) (human, UniProt P00740 47-191; P00740 227-461, EGR-CMK (L-Glu-Gly-Arg chloromethyl ketone) covalently bound to the active site).
T2 construct: BLI antigen bought from Haematologic Technologies (HCIXA-EGR); also called FIXa with substrate mimic
The test can be described thus: BLI; class meaning: paragraph 914.

B1: BIIB-9-1277 (antibody, V domains shown)
VH: QVQLVQSGAEVKKPGASVKVSCKASGYTFTSYYMHWVRQAPGQGLEWMGIINPSGGSTSYAQKFQGRVTMTRDTSTSTVYMELSSLRSEDTAVYYCARGGTGYYYGSGSRDGYHYYYGMDVWGQGTTVTVSS
VL: EIVMTQSPATLSVSPGERATLSCRASQSVSSYLAWYQQKPGQAPRLLIYDASNRATGIPARFSGSGSGTDFTLTISSLEPEDLAVYYCQQSANWPPTFGGGTKVEIK
notes: IgG
For the molecule B1, the binding result (in test [1]; with FIXa-SM (FIXa+EGR-CMK)) was “binds” throughout.

B2: BIIB-9-1282 (antibody, V domains shown)
VH: QVQLVQSGAEVKKPGASVKVSCKASGYTFTSYYMVWVRQAPGQGLEWMGIINPSGGSTSYAQKFQGRVTMTRDTSTSTVYMELSSLRSEDTAVYYCARVPTYRYSYLAFDIWGQGTMVTVSS
VL: EIVMTQSPATLSVSPGERATLSCRASQSVSSNLAWYQQKPGQAPRLLIYGASTRATGIPARFSGSGSGTEFTLTISSLQSEDFAVYYCQQHNHLPITFGGGTKVEIK
notes: IgG
For B2, the binding result (in test [1]; with FIXa-SM (FIXa+EGR-CMK)) was “binds” each time.

B3: BIIB-9-1283 (antibody, V domains shown)
VH: QVQLVQSGAEVKKPGASVKVSCKASGYTFTSYYMVWVRQAPGQGLEWMGIINPSGGSTSYAQKFQGRVTMTRDTSTSTVYMELSSLRSEDTAVYYCARVPTYRYSYLAFDIWGQGTMVTVSS
VL: DIQMTQSPSSVSASVGDRVTITCRASQGISSWLAWYQQKPGKAPKLLIYAASSLQSGVPSRFSGSGSGTDFTLTISSLQPEDFATYYCQQASSFPPTFGGGTKVEIK
notes: IgG
On to B3, for which the binding result (in test [1]; with FIXa-SM (FIXa+EGR-CMK)) was “binds” throughout.

B4: BIIB-9-1278 (antibody, V domains shown)
VH: QVQLVQSGAEVKKPGASVKVSCKASGYTFTSYYMVWVRQAPGQGLEWMGIINPSGGSTSYAQKFQGRVTMTRDTSTSTVYMELSSLRSEDTAVYYCARGPGELGYYLAFDIWGQGTMVTVSS
VL: EIVMTQSPATLSVSPGERATLSCRASQSVSSNLAWYQQKPGQAPRLLIYGASTRATGIPARFSGSGSGTEFTLTISSLQSEDFAVYYCQQHANFPPTFGGGTKVEIK
notes: IgG
As to B4, the binding result (in test [1]; with FIXa-SM (FIXa+EGR-CMK)) was “binds” each time.

B5: BIIB-9-1285 (antibody, V domains shown)
VH: QVQLVQSGAEVKKPGASVKVSCKASGYTFTSYYMVWVRQAPGQGLEWMGIINPSGGSTSYAQKFQGRVTMTRDTSTSTVYMELSSLRSEDTAVYYCARVPTYRYSYLAFDIWGQGTMVTVSS
VL: EIVMTQSPATLSVSPGERATLSCRASQSVSSNLAWYQQKPGQAPRLLIYGASTRATGIPARFSGSGSGTEFTLTISSLQSEDFAVYYCQQASNFPPTFGGGTKVEIK
notes: IgG
As to B5, the binding result (in test [1]; with FIXa-SM (FIXa+EGR-CMK)) was “binds” throughout.

B6: BIIB-9-1284 (antibody, V domains shown)
VH: QVQLVQSGAEVKKPGASVKVSCKASGYTFTSYYMVWVRQAPGQGLEWMGIINPSGGSTSYAQKFQGRVTMTRDTSTSTVYMELSSLRSEDTAVYYCARVPTYRYSYLAFDIWGQGTMVTVSS
VL: EIVLTQSPATLSVSPGERATLSCRASQSVGSNLAWYQQKPGQAPRLLIYGASTRATGIPARFSGSGSGTEFTLTISSLQSEDFAVYYCQQHNHLPITFGGGTKVEIK
notes: IgG
On to B6, for which the binding result (in test [1]; with FIXa-SM (FIXa+EGR-CMK)) was “binds” in each case.

B7: BIIB-9-1279 (antibody, V domains shown)
VH: QVQLVQSGAEVKKPGASVKVSCKASGYTFTSYYMHWVRQAPGQGLEWMGIINPSGGSTSYAQKFQGRVTMTRDTSTSTVYMELSSLRSEDTAVYYCARGPTDSSGYLDMDVWGKGTTVTVSS
VL: DIQMTQSPSSVSASVGDRVTITCRASQGISSWLAWYQQKPGKAPKLLIYAASSLQSGVPSRFSGSGSGTDFTLTISSLQPEDFATYYCQQASSFPPTFGGGTKVEIK
notes: IgG
On to B7, for which the binding result (in test [1]; with FIXa-SM (FIXa+EGR-CMK)) was “binds” in each case.
